Data on 3 molecules can be found in publication doi:10.1101/2023.05.08.539930.

The target of this series is MSH2;MSH3 (Homo sapiens;Homo sapiens, UniProt P43246;P20585 1-934;1-1137, |). Briefly: FRET.

B1: 70 bp (CAG)1 FRET DNA (dsDNA)
DNA 1: CACACGTTCCGAGATATCCTAGCAAGTGATCAGCGTCTATGTAGCTCAAGAGTTCGACTCAGCCTACACCGAG
DNA 2: CTCGGTGTAGGCTGAGTCGAACTCTTGAGCTACATAGACGATCACTTGCTAGGATATCTCGGAACGTGTG
modifications: 5' digoxigenin on both strands, anti-digoxigenin Fab end-blocked
With B1, the binding result was “binds”.

B2: 70 bp (CAG)2 FRET DNA (dsDNA)
DNA 1: CACACGTTCCGAGATATCCTAGCAAGTGATCAGCAGCGTCTATGTAGCTCAAGAGTTCGACTCAGCCTACACCGAG
DNA 2: CTCGGTGTAGGCTGAGTCGAACTCTTGAGCTACATAGACGATCACTTGCTAGGATATCTCGGAACGTGTG
modifications: 5' digoxigenin on both strands, anti-digoxigenin Fab end-blocked
On to B2, for which the binding result was “binds”.

B3: 70 bp (CAG)4 FRET DNA (dsDNA)
DNA 1: CACACGTTCCGAGATATCCTAGCAAGTGATCAGCAGCAGCAGCGTCTATGTAGCTCAAGAGTTCGACTCAGCCTACACCGAG
DNA 2: CTCGGTGTAGGCTGAGTCGAACTCTTGAGCTACATAGACGATCACTTGCTAGGATATCTCGGAACGTGTG
modifications: 5' digoxigenin on both strands, anti-digoxigenin Fab end-blocked
Consider B3, for which the binding result is “binds”.
